The values that follow come from publication PMC9530649 (Cancer Immunology Research, 2022).

The chains are these.
B1: recombinant human fibrinogen-like protein-1 (FGL1)–mFc fusion protein (Fc fusion)
chain: LEDCAQEQMRLRAQVRLLETRVKQQQVKIKQLLQENEVQFLDKGDENTVIDLGSKRQYADCSEIFNDGYKLSGFYKIKPLQSPAEFSVYCDMSDGGGWTVIQRRSDGSENFNRGWKDYENGFGNFVQKHGEYWLGNKNLHFLTTQEDYTLKIDLADFEKNSRYAQYKNFKVGDEKNFYELNIGEYSGTAGDSLAGNFHPEVQWWASHQRMKFSTWDRDHDNYEGNCAEEDQSGWWFNRCHSANLNGVYYSGPYTAKTDNGIVWYTWHGWWYSLKSVVMKIRPNDFIPNVI
B4: recombinant human LAG-3–Fc protein (hLAG-3–hFc) (Fc fusion)
chain: LQPGAEVPVVWAQEGAPAQLPCSPTIPLQDLSLLRRAGVTWQHQPDSGPPAAAPGHPLAPGPHPAAPSSWGPRPRRYTVLSVGPGGLRSGRLPLQPRVQLDERGRQRGDFSLWLRPARRADAGEYRAAVHLRDRALSCRLRLRLGQASMTASPPGSLRASDWVILNCSFSRPDRPASVHWFRNRGQGRVPVRESPHHHLAESFLFLPQVSPMDSGPWGCILTYRDGFNVSIMYNLTVLGLEPPTPLTVYAGAGSRVGLPCRLPAGVGTRSFLTAKWTPPGGGPDLLVTGDNGDFTLRLEDVSQAQAGTYTCHIHLQEQQLNATVTLAIITVTPKSFGSPGSLGKLLCEVTPVSGQERFVWSSLDTPSQRSFSGPWLEAQEAQLLSQPWQCQLYQGERLLGAAVYFTELSSPGAQRSGRAPGALPAGHL

The target in experiment [1] is full-length human LAG-3 on CHO-S cells (CHO-huLAG-3) (Homo sapiens) (UniProt P18627). As to the kind of experiment: flow cytometry on cells. (In general: Flow cytometry measures light scatter and fluorescence of single cells or particles in a stream.)
Experiment [2] has as its target hLAG-3–mFc (Homo sapiens) (UniProt P18627). As to the kind of experiment: flow cytometry on cells.
Experiment [3] concerns the target cynomolgus monkey LAG-3 (cynomolgus monkey (endogenous in primary CD4+ T cells)). As to the kind of experiment: flow cytometry on cells.
Experiment [4] has as its target recombinant human LAG-3–Fc protein (hLAG-3–hFc) (human) (UniProt P18627). As to the kind of experiment: ELISA.
Experiment [5] shares this target. As to the kind of experiment: SPR. Background: SPR reads the build-up and loss of mass on a sensor chip optically.
Experiment [6] addresses B4. As to the kind of experiment: BLI. For orientation: Biolayer interferometry detects binding as a change in optical thickness at a sensor tip.
For experiment [7], the target named is T1, LAG-3 D1 insertion-loop peptide P60[…]75 (Homo sapiens).
T1 chain: PGPHPAAPSSWGPRPR
As to the kind of experiment: ELISA.

A further experiment has as its target native human LAG-3 (Homo sapiens, endogenous, UniProt P18627). As to the kind of experiment: immunostaining of cells or tissue.
Experiment [8] has as its target human LAG-3 fusion protein (used for pre-absorption of LAG-3.1-G4P-FITC) (Homo sapiens, UniProt P18627). As to the kind of experiment: immunostaining of cells or tissue.
Experiment [9] has as its target LAG-3 endogenous in normal human pituitary (adenohypophysis) (Homo sapiens, endogenous, UniProt P18627). As to the kind of experiment: immunostaining of cells or tissue.
Experiment [10] deals with B1. As to the kind of experiment: ELISA.

On to relatlimab (antibody), for which the EC50 (as a rule, the concentration giving half of the maximal effect) in experiment [1] was determined as 1.46 nM; in [3], 29.1 nM; in experiment [4], 0.49 nM. For the same molecule, the IC50 (usually the concentration that inhibits the measured activity by half) in [2] was 0.67 nM; in experiment [4] it was 0.019 nM. Besides, in experiment [5], the Kd – broadly, the free concentration of one partner at which half of the binding sites on the other are occupied at equilibrium, for simple one-to-one binding – came to 0.12 nM.

Regarding relatlimab Fab fragment (Fab 3.5), the Kd in experiment [5] worked out at 10 nM.

For B1, the Kd in experiment [6] is above 1000 nM.

B2: LAG3.1-G4P (antibody, V domains shown)
VH: QVQLQQWGAGLLKPSETLSLTCAVYGGSFSDYYWNWIRQPPGKGLEWIGEINHNGNTNSNPSLKSRVTLSLDTSKNQFSLKLRSVTAADTAVYYCAFGYSDYEYNWFDPWGQGTLVTVSS
VL: EIVLTQSPATLSLSPGERATLSCRASQSISSYLAWYQQKPGQAPRLLIYDASNRATGIPARFSGSGSGTDFTLTISSLEPEDFAVYYCQQRSNWPLTFGQGTNLEIK
In experiment [7], B2 came in with an EC50 of 0.44 nM. For the same molecule, in the experiment with native human LAG-3, the binding result is reported as “binds”.

B3: LAG-3.1-G4P-FITC (fluoresceinated LAG3.1-G4P, parent antibody of relatlimab) (antibody, V domains shown)
VH: QVQLQQWGAGLLKPSETLSLTCAVYGGSFSDYYWNWIRQPPGKGLEWIGEINHNGNTNSNPSLKSRVTLSLDTSKNQFSLKLRSVTAADTAVYYCAFGYSDYEYNWFDPWGQGTLVTVSS
VL: EIVLTQSPATLSLSPGERATLSCRASQSISSYLAWYQQKPGQAPRLLIYDASNRATGIPARFSGSGSGTDFTLTISSLEPEDFAVYYCQQRSNWPLTFGQGTNLEIK
On to B3, for which the binding result in experiment [8] and in experiment [9] was “binds” each time.

As for B4, the EC50 in [10] came out at 0.085 nM.
